These are literature values, as cited in article PMC3150215.

Read-outs that look alike come from different tables or passages of the source.

The target of data set [1] is Capping protein (Mus musculus) (UniProt P47753).
For data set [2] the target is unchanged. The source holds these as a separate data set.

One may read the Kd as the concentration at which binding is half-saturated. Regarding “CARMIL CBR115 CBR115 (from UniProt Q6EDY6)”, the Kd in data set [1] was 1.5 nM.
On to CD2AP 474-513 (from UniProt Q9Y5K6), for which the dissociation constant Kd in data set [2] was 6 nM.
